Consider two substances from PMC11165477.

Test [1] has as its target Ma1α-neoGreen, expressed in Xenopus laevis oocytes (apple (Malus domestica)). As to the kind of experiment: single-molecule photobleaching step counting (TIRF); Ma1α-neoGreen alone in X. laevis oocytes, 16-24 h after cRNA injection, vitelline membrane removed, ND96 solution.
For test [2] the target is unchanged. Nature of the test: single-molecule photobleaching step counting (TIRF); competition: Ma1α-neoGreen in X. laevis oocytes co-injected with 25% or 50% of the total cRNA as untagged Ma1β.

In general, stoichiometry N refers to the number of molecules, sites or subunits per partner or assembly. In test [1], “Ma1α-neoGreen, expressed in Xenopus laevis oocytes (natural protein)” registered a percent of fluorescent spots with two discrete bleaching steps of 72% and a stoichiometry N of 2.

Regarding “Ma1β, untagged, expressed in Xenopus laevis oocytes (natural protein)”, in test [2], the percent Ma1α-neoGreen dimer population (two bleaching steps) with 25% of the total cRNA as untagged Ma1β was 38% and the percent Ma1α-neoGreen dimer population (two bleaching steps) with 50% of the total cRNA as untagged Ma1β turned out to be 30%.
